The values below are quoted from earlier work in US20070299244A1, “Liposome allowing liposome-entrapped substance to escape from endosome” (Japan Science and Technology Agency, priority 2005, published 2007).

Like-named read-outs stand apart in the source and are kept apart here.

In the case of “GALA: synthetic peptide comprising the amino acid sequence represented by SEQ ID NO:1 (AALAELAEALAEALHEALAEALAEALAAEW; Designed peptide called “GALA”)”, the “Proportion of α helix structures” value (pH 5.0) is given as “about 70%” and the “Proportion of α helix structures” value (pH 7.4) was “about 20%”.
